Common to all, as to assay: cell-based or functional assay
In experiment [1] the target is TM-CIBN-NES-TEV-N-BLITz-1-tTA.
Experiment [2] deals with TM-CIBN-NES-TEV-N-BLITz-6-tTA.
Experiment [3] deals with TM-CIBN-TEV-N-TEVseq-tTA with intact TEVseq without a fusion to the AsLOV2 protein.

Bounds are passed on as bounds.

The results in this text go back to patent US20200010513A1.

Turning to NES-CRY2PHR-TEV-C, the SEAP assay, fold gene expression by blue light (HEK293T cells) in experiment [1] and in experiment [2] was more than 20 fold in each case. In experiment [3], the SEAP assay, fold change of gene expression by blue light (HEK293T cells) amounted to 1.4 fold.
